Data reported in US6632627B2, “Glutamine: fructose-6-phosphate amidotransferase, its production and use” (Takeda Chemical Industries, Ltd., priority 1997, dated 2003).

B1: TGC028-4: human-derived protein having the amino acid sequence of SEQ ID NO:3 (682 residues), constructed from TGC028-3 and a GFAT-like DNA fragment (protein)
chain: MCGIFAYMNYRVPRTRKEIFETLIKGLQRLEYRGYDSAGVAIDGNNHEVKERHIQLVKKRGKVKALDEELYKQDSMDLKVEFETHFGIAHTRWATHGVPSAVNSHPQRSDKGNEFVVIHNGIITNYKDLRKFLESKGYEFESETDTETIAKLIKYVFDNRETEDITFSTLVERVIQQLEGAFALVFKSVHYPGEAVATRRGSPLLIGVRSKYKLSTEQIPILYRTCTLENVKNICKTRMKRLDSSACLHAVGDKAVEFFFASDASAIIEHTNRVIFLEDDDIAAVADGKLSIHRVKRSASDDPSRAIQTLQMELQQIMKGNFSAFMQKEIFEQPESVFNTMRGRVNFETNTVLLGGLKDHLKEIRRCRRLIVIGCGTSYHAAVATRQVLEELTELPVMVELASDFLDRNTPVFRDDVCFFISQSGETADTLLALRYCKDRGALTVGVTNTVGSSISRETDCGVHINAGPEIGVASTKAYTSQFISLVMFGLMMSEDRISLQNRRQEIIRGLRSLPELIKEVLSLEEKIHDLALELYTQRSLLVMGRGYNYATCLEGALKIKEITYMHSEGILAGELKHGPLALIDKQMPVIMVIMKDPCFAKCQNALQQVTARQGRPIILCSKDDTESSKFAYKTIELPHTVDCLQGILSVIPLQLLSFHLAVLRGYDVDFPRNLAKSVTVE
B2: TGC028-3: human-derived protein having the amino acid sequence of SEQ ID NO:2 (615 residues), novel GFAT protein expressed in E. coli (protein)
chain: MCGIFAYMNYRVPRTRKEIFETLIKGLQRLEYRGYDSAGVAIDGNNHEVKERHIQLVKKRGKVKALDEELYKQDSMDLKVEFETHFGIAHTRWATHGVPSAVNSHPQRSDKGNEFVVIHNGIITNYKDLRKFLESKGYEFESETDTETIAKLIKYVFDNRETEDITFSTLVERVIQQLEGAFALVFKSVHYPGEAVATRRGSPLLIGVRSKYKLSTEQIPILYRTCTLENVKNICKTRMKRLDSSACLHAVGDKAVEFFFASDASAIIEHTNRVIFLEDDDIAAVADGKLSIHRVKRSASDDPSRAIQTLQMELQQIMKGNFSAFMQKEIFEQPESVFNTMRGRVNFETNTVLLGGLKDHLKEIRRCRRLIVIGCGTSYHAAVATRQVLEELTELPVMVELASDFLDRNTPVFRDDVCFFISQSGETADTLLALRYCKDRGALTVGVTNTVGSSISRETDCGVHINAGPEIGVASTKAYTSQFISLVMFGLMMSEDRISLQNRRQEIIRGLRSLPELIKEVLSLEEKIHDLALELYTQRSLLVMGRGYNYATCLEGALKIKEITYMHSEGILAGELKHGPLALIDKQMPVIMVIMKDPCFAKCQNALQQVTARQV

Experiment: Detection of GFAT activity of the proteins (HPLC detection of PITC-bound glucosamine-6-phosphate)
Type: biochemical
Conditions: 1 μl recombinant protein in 100 μl reaction mixture; 6 mM glutamine, 10 mM fructose-6-phosphate; pH 7.5; room temperature, 5 hours
Procedure: GFAT activity of the proteins: TGC028-3 and TGC028-4 was measured in the following manner. In a solution (0.1 M K2HP04, 50 mM KCl, 50 mM HEPES, 1 mM EDTA, 5 mM DTT, pH 7.5) were added glutamine and fructose-6-phosphate to final concentrations of 6 mM and 10 mM, respectively. Then, in 100 μl of this reaction mixture was added 1 μl of TGC028-3 or TGC028-4 protein, and the reaction mixture was incubated at room temperature for 5 hours. Thereafter, the reaction mixture was subjected to centrifugal filtration using a Ultrafree C3GC (cut-off molecular weight: 10,000; Millipore) and the filtrate obtained was mixed with an equal volume of a solution consisted of methanol, water, and triethylamine at the ratio of 2:2:1. After the mixture was dried in vacuo, the residue was dissolved in 20 μl of a mixed solution of methanol, water, and triethylamine-phenyl isothiocyanate (PITC) at the ratio of 7:1:1:1 and the reaction was carried out at room temperature for 20 minutes. […] Elution was carried out using a mobile phase comprising 232 mM sodium acetate, 0.1% triethylamine and 5% acetonitrile (pH 6.0) at a flow rate of 1 ml/minute and PITC-bound glucosamine-6-phosphate was detected at UV 254 nm.

Molecule | GFAT activity: formation of glucosamine-6-phosphate (peak of PITC-bound glucosamine-6-phosphate by HPLC, UV 254 nm)
B1 | a peak was confirmed at the position corresponding to PITC-bound glucosamine-6-phosphate
B2 | a peak was confirmed at the position corresponding to PITC-bound glucosamine-6-phosphate
